Target: T1, VacA, the vacuolating cytotoxin of Helicobacter pylori (Helicobacter pylori ATCC49503, UniProt Q48245 34-854)
T1 sequence: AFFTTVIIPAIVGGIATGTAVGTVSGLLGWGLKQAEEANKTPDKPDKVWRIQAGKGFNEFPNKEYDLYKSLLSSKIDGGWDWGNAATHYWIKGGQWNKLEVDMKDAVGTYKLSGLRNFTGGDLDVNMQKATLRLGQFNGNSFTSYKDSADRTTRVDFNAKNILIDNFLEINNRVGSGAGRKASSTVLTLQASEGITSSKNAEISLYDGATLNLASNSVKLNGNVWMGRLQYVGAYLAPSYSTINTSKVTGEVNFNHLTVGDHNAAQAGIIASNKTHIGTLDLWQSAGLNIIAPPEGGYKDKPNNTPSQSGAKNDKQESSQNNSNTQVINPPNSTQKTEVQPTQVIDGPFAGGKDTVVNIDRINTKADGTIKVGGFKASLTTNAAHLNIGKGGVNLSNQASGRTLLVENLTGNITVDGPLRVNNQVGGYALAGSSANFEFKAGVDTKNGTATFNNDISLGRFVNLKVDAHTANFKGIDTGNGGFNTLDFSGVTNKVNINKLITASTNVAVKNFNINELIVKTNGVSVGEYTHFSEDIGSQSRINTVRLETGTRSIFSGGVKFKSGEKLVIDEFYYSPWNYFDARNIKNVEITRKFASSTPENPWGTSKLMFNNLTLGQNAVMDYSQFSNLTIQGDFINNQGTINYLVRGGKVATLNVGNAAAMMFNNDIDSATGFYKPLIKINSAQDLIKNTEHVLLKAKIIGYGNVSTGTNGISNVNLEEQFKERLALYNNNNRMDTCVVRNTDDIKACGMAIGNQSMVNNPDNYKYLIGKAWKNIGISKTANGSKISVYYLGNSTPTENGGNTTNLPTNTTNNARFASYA
Assay: SPR; BIAcore X, 25°C; GST-MMRN1 amine-coupled to a CM5 chip; VacA in PBS with 1 mM Ca++ perfused at 20 μL/min; control surface subtracted
Details: both partners purified

B1: Glutathione S-transferase (GST)-fusion protein of multimerin 1 (291a.a. ~ 391a.a.) (domain or fragment)
chain: IHTNQAESHTAVGRGVAEQQQQQGCGDPEVMQKMTDQVNYQAMKLTLLQKKIDNISLTVNDVRNTYSSLEGKVSEDKSREFQSLLKGLKSKSINVLIRDIV
notes: multimerin 1 (MMRN1), residues 291-391; also called GST-MMRN1; GST-fusion protein of partial MMRN1 (291aa-391aa); source: bought: Abnova Corporation
  Kd: 33 nM

Reference: publication PMC3842841, “VacA, the vacuolating cytotoxin of Helicobacter pylori, binds to multimerin 1 on human platelets” (Thrombosis Journal, 2013)
